Experimental data from patent US20260055200A1, “COMBINATION THERAPIES” (Alligator Bioscience AB, priority 2022, published 2026).
Like-named read-outs stand apart in the source and are kept apart here.

Key:
[1] = OPTIMIZE-1 safety and tolerability (AEs, DLTs, RP2D; CTCAE v5.0); format: in vivo
Procedure: Two dose levels, 450 μg/kg and 900 μg/kg, of mitazalimab were planned to be administered in combination with mFOLFIRINOX in Part 1. During the first treatment cycle (the first 21 days) for each patient, mitazalimab was administered on Day 1 and Day 10 and mFOLFIRINOX infusion started on Day 8. During the following 14-day treatment cycles, mFOLFIRINOX was administered on Day 1 and mitazalimab on Day 3 of each cycle, see FIG. 3. In case the number of DLTs for a dose level fulfilled the stop criteria, see Table 3 Escalation rules based on number of patients with DLTs, at the lowest dose level of mitazalimab, the chemotherapy mFOLFIRINOX could be exchanged to the chemotherapy gemcitabine plus nab-paclitaxel, as illustrated in FIG. 2. If changing the chemotherapy from mFOLFIRINOX to gemcitabine plus nab-paclitaxel, see dosage schedule in Example 5.
The dose escalation in Part 1 follows a BOIN design with at least 3 evaluable patients per dose level. According to the BOIN design, each time a cohort of patients has been completed, a decision is made whether the next cohort should remain on the same dose, escalate to the next higher dose level or de-escalate to the next lower dose level, according to the decision rules presented in Table 3 below. A range of 3-9 patients was included at each dose level. In this study, the de-escalation from 450 μg/kg mitazalimab in combination with mFOLFIRINOX was a change of chemotherapy to gemcitabine plus nab-paclitaxel as previously described.
Mitazalimab in combination with mFOLFIRINOX: The DLT evaluation period is defined as the time from the first dose of mitazalimab (Day 1) until Day 21 in the first treatment cycle (Cycle 1). Mitazalimab in combination with gemcitabine plus nab-paclitaxel: The DLT evaluation period is defined as the time from the first dose of mitazalimab (Day 1) until Day 28 within the first treatment cycle of 35 days (Cycle 1). This period enabled the DRC to evaluate for early safety of mitazalimab together with the chemotherapy combination.
The same DLT criteria applied for mitazalimab in combination with mFOLFIRINOX and gemcitabine plus nab-paclitaxel. A DLT was considered related to study treatment unless there is a clear, well-documented, alternative explanation for the adverse event (AE). AEs that meet the above criteria but occur after the DLT evaluation period were not defined as DLTs, unless the onset of the event was during the DLT evaluation period. The event could be reported as AEs/Serious adverse events (SAEs), as applicable.
Number or patients experiencing AEs and number of events were summarized by SOC and preferred term. In addition, the following AEs were presented: • Incidence of DLT (Part 1); • AEs Grade 3 or higher; • Serious AEs; • AEs leading to discontinuation of study treatment; and • AEs leading to death.
The safety set comprised all patients that received any study treatment (mitazalimab) and was used for all endpoints related to the safety objectives.
The objective of the first (Phase 1b) part of the study was to determine the RP2D of mitazalimab+mFOLFIRINOX. Mitazalimab was escalated from 450 μg/kg to 900 μg/kg following a Bayesian optimal interval design with at least 3 patients enrolled per dose level. In the first 21-day treatment cycle (Dose Limiting Toxicity assessment period), mitazalimab was administered intravenously on days 1 and 10 and mFOLFIRINOX starts on day 8. In the second and subsequent cycles, treatment followed a 14-day cycle schedule where mitazalimab was administered 2 days after mFOLFIRINOX.

[2] = tested on: advanced stage solid malignancies; conditions: cited from earlier work
[3] = tested on: advanced stage solid tumours; conditions: cited from earlier work

B1: Mitazalimab: agonistic, human monoclonal (IgG1) antibody targeting CD40 (antibody, chains of the INN, looked up, V domains shown)
VH: EVQLLESGGGLVQPGGSLRLSCAASGFTFSTYGMHWVRQAPGKGLEWLSYISGGSSYIFYADSVRGRFTISRDNSENALYLQMNSLRAEDTAVYYCARILRGGSGMDLWGQGTLVTVSS
VL: QSVLTQPPSASGTPGQRVTISCTGSSSNIGAGYNVYWYQQLPGTAPKLLIYGNINRPSGVPDRFSGSKSGTSASLAISGLRSEDEADYYCAAWDKSISGLVFGGGTKLTVL
- AESIs ([1]; in vivo): None
- DLTs ([1]; in vivo): G3 Headache
- DLTs, % ([1]; in vivo): (9.1) %
- Discontinued treatment: Unacceptable toxicity, percentage of patients ([1]; in vivo): (11.6) %
- Discontinued treatment: Unacceptable toxicity, percentage relative to number discontinued ([1]; in vivo): 15.4%
- Grade 1 or 2 TEAEs, % ([1]; in vivo): 81.8%
- Grade 3 TEAEs, % ([1]; in vivo): 36.4%
- Mitazalimab Related Adverse Events: Grade 1 or 2 TEAEs, % ([1]; in vivo): (72.7) %
- Mitazalimab Related Adverse Events: Grade 3 TEAEs, % ([1]; in vivo): (9.1) %
- Mitazalimab Related Adverse Events: patients with any TEAEs, % ([1]; in vivo): (72.7) %
- Mitazalimab-related Grade 1-2 Fatigue ([1]; in vivo): 3
- Mitazalimab-related Grade 1-2 Fever or similar ([1]; in vivo): 6
- Mitazalimab-related Grade 3 Fatigue ([1]; in vivo): 2
- Mitazalimab-related Grade 3 Headache ([1]; in vivo): 1
- Mitazalimab-related Grade 3 Hypokalemia ([1]; in vivo): 1
- Patients with any TEAEs, % ([1]; in vivo): 81.8%
- Mitazalimab-related Grade 1-2 Flu/muscle ache ([1]; of 11 patients at 2 dose levels): 5
- best response ([2]; 400 μg/kg intratumoural): stable disease (SD) in one patient with renal cell carcinoma
- patients with increases in liver enzymes or bilirubin ([2]; IV administration): 3 of 5
- dose-limiting toxicities (DLTs) observed ([2]; both intratumoural: grade 3 abdominal pain, grade 3 cholecystitis): Two
- maximum tolerated dose (MTD) ([2]; in vivo): No maximum tolerated dose (MTD) was identified
- patients with increases in liver enzymes or bilirubin ([2]; intratumoural administration): 9 of 18
- doses shown safe and well tolerated ([3]; Phase I study NCT02829099): up to 1200 μg/kg
- grade of most drug related adverse events ([3]; Phase I study NCT02829099): grade 1 or 2
- patients who experienced a DLT ([3]; headache 5 days, grade 3 liver enzyme with grade 2 bilirubin elevation): Two
- MTD ([3]; human, in vivo, iv): No MTD was identified
- duration of SD in one of seven pancreatic cancer patients ([3]; in vivo): more than 6 months
- response observed ([3]; patient with renal cell cancer, 1200 μg/kg): partial response (PR)
- time on study of the patient with PR ([3]; renal cell cancer, 1200 μg/kg, fourteen cycles): 9.2 months
